In patent US20230080842A1 (WUHAN YZY BIOPHARMA, published 2023) one finds EC50 data, which are given here for 7 molecules.

This experiment deals with T1, Human SLAMF7 (human, UniProt Q9NQ25 23-226).
T1 construct: also called SLAMF7 antigen; not shown: His tag
As to the kind of experiment: ELISA, plate coated with His-tagged antigen. (In general: In an ELISA, binding on a coated surface is turned into a signal by an enzyme label.)

B1: Y216-A1 (bispecific antibody, human IgG1, kappa)
light: DIQMTQSPSSLSASVGDRVTITCKASQDVGIAVAWYQQKPGKVPKLLIYWASTRHTGVPDRFSGSGSGTDFTLTISSLQPEDVATYYCQQYSSYPYTFGQGTKVEIKRTVAAPSVFIFPPSDEQLKSGTASVVCLLNNFYPREAKVQWKVDNALQSGNSQESVTEQDSKDSTYSLSSTLTLSKADYEKHKVYACEVTHQGLSSPVTKSFNRGEC
heavy: EVQLVESGGGLVQPGGSLRLSCAASGFDFSRYWMSWVRQAPGKGLEWIGEINPDSSTINYAPSLKDKFIISRDNAKNSLYLQMNSLRAEDTAVYYCARPDGNYWYFDVWGQGTLVTVSSASTKGPSVFPLAPSSKSTSGGTAALGCLVKDYFPEPVTVSWNSGALTSGVHTFPAVLQSSGLYSLSSVVTVPSSSLGTQTYICNVNHKPSNTKVDKKVEPKSCDKTHTCPPCPAPPVAGPSVFLFPPKPKDTLMISRTPEVTCVVVDVSHEAPEVQFNWYVDGVEVHNAKTKPREEQFNSTFRVVSVLTVVHQDWLNGKEYKCKVSNKGLPAPIEKTISKTKGQPREPQVYTLPPSRDELTKNQVSLTCLVKGFYPSDIAVEWESNGQPENNYKTTPPVLDSDGSFFLYSKLTVDKSRWQQGNVFSCSVMHEALHNHYTQKSLSLSPGAGGGGSGGGGSGGGGSGEVQLVESGGGVVRPGGSLRLSCAASGFTFDDYGMSWVRQAPGKGLEWVSGINWNGGSTGYADSVKGRFTISRDNAKNSLYLQMNSLRAEDTAVYYCARGRSLLFDYWGQGTLVTVSRGGGGSGGGGSGGGGSSELTQDPAVSVALGQTVRITCQGDSLRSYYASWYQQKPGQAPVLVIYGKNNRPSGIPDRFSGSSSGNTASLTITGAQAEDEADYYCNSRDSSGNHVVFGGGTKLTVL
notes: structure 2 IgG(H)-ScFv, A series; IgG Elotuzumab (anti-SLAMF7), scFv NM3E2 (anti-CD16)
By EC50 is commonly meant the concentration at which the effect is half-maximal. The low end stands for a more potent agent, the high end for a less potent agent. As for B1, a half-maximal effect (EC50) was put at 0.715 nM.

B2: Y216-B1 (bispecific antibody, human IgG1, kappa)
light: B1 light
heavy: EVQLVESGGGLVQPGGSLRLSCAASGFDFSRYWMSWVRQAPGKGLEWIGEINPDSSTINYAPSLKDKFIISRDNAKNSLYLQMNSLRAEDTAVYYCARPDGNYWYFDVWGQGTLVTVSSASTKGPSVFPLAPSSKSTSGGTAALGCLVKDYFPEPVTVSWNSGALTSGVHTFPAVLQSSGLYSLSSVVTVPSSSLGTQTYICNVNHKPSNTKVDKKVEPKSCDKTHTCPPCPAPPVAGPSVFLFPPKPKDTLMISRTPEVTCVVVDVSHEAPEVQFNWYVDGVEVHNAKTKPREEQFNSTFRVVSVLTVVHQDWLNGKEYKCKVSNKGLPAPIEKTISKTKGQPREPQVYTLPPSRDELTKNQVSLTCLVKGFYPSDIAVEWESNGQPENNYKTTPPVLDSDGSFFLYSKLTVDKSRWQQGNVFSCSVMHEALHNHYTQKSLSLSPGAGGGGSGGGGSGGGGSGSELTQDPAVSVALGQTVRITCQGDSLRSYYASWYQQKPGQAPVLVIYGKNNRPSGIPDRFSGSSSGNTASLTITGAQAEDEADYYCNSRDSSGNHVVFGGGTKLTVLGGGGSGGGGSGGGGSEVQLVESGGGVVRPGGSLRLSCAASGFTFDDYGMSWVRQAPGKGLEWVSGINWNGGSTGYADSVKGRFTISRDNAKNSLYLQMNSLRAEDTAVYYCARGRSLLFDYWGQGTLVTVSR
notes: structure 2 IgG(H)-ScFv, B series; IgG Elotuzumab (anti-SLAMF7), scFv NM3E2 (anti-CD16)
Molecule B2 gave an EC50 of 0.499 nM.

B3: Y116-B2 (bispecific antibody)
light: DIQMTQSPSSLSASVGDRVTITCKASQDVGIAVAWYQQKPGKVPKLLIYWASTRHTGVPDRFSGSGSGTDFTLTISSLQPEDVATYYCQQYSSYPYTFGQGTKVEIKRTVAAPSVFIFPPSDEQLKSGTASVVCLLNNFYPREAKVQWKVDNALQSGNSQESVTEQDSKDSTYSLSSTLTLSKADYEKHKVYACEVTHQGLSSPVTKSFNRGECGGGGSEAAAKGGGGSEVQLVESGGGVVRPGGSLRLSCAASGFTFDDYGMSWVRQAPGKGLEWVSGINWNGGSTGYADSVKGRFTISRDNAKNSLYLQMNSLRAEDTAVYYCARGRSLLFDYWGQGTLVTVSR
heavy: EVQLVESGGGLVQPGGSLRLSCAASGFDFSRYWMSWVRQAPGKGLEWIGEINPDSSTINYAPSLKDKFIISRDNAKNSLYLQMNSLRAEDTAVYYCARPDGNYWYFDVWGQGTLVTVSSASTKGPSVFPLAPSSKSTSGGTAALGCLVKDYFPEPVTVSWNSGALTSGVHTFPAVLQSSGLYSLSSVVTVPSSSLGTQTYICNVNHKPSNTKVDKKVEPKSCGGGGSEAAAKGGGGSSELTQDPAVSVALGQTVRITCQGDSLRSYYASWYQQKPGQAPVLVIYGKNNRPSGIPDRFSGSSSGNTASLTITGAQAEDEADYYCNSRDSSGNHVVFGGGTKLTVLGYPGGGGSDKTHTCPPCPAPPVAGPSVFLFPPKPKDTLMISRTPEVTCVVVDVSHEAPEVQFNWYVDGVEVHNAKTKPREEQFNSTFRVVSVLTVVHQDWLNGKEYKCKVSNKGLPAPIEKTISKTKGQPREPQVYTLPPSRDELTKNQVSLTCLVKGFYPSDIAVEWESNGQPENNYKTTPPVLDSDGSFFLYSKLTVDKSRWQQGNVFSCSVMHEALHNHYTQKSLSLSPGK
As to B3, it took 0.648 nM to reach a half-maximal effect (EC50).

B4: Y416-B1 (bispecific antibody, human IgG1, kappa)
light: EVQLVESGGGLVQPGGSLRLSCAASGFDFSRYWMSWVRQAPGKGLEWIGEINPDSSTINYAPSLKDKFIISRDNAKNSLYLQMNSLRAEDTAVYYCARPDGNYWYFDVWGQGTLVTVSSGGGGSGGGGSGGGGSSELTQDPAVSVALGQTVRITCQGDSLRSYYASWYQQKPGQAPVLVIYGKNNRPSGIPDRFSGSSSGNTASLTITGAQAEDEADYYCNSRDSSGNHVVFGGGTKLTVLRTVAAPSVFIFPPSDEQLKSGTASVVCLLNNFYPREAKVQWKVDNALQSGNSQESVTEQDSKDSTYSLSSTLTLSKADYEKHKVYACEVTHQGLSSPVTKSFNRGEC
heavy: DIQMTQSPSSLSASVGDRVTITCKASQDVGIAVAWYQQKPGKVPKLLIYWASTRHTGVPDRFSGSGSGTDFTLTISSLQPEDVATYYCQQYSSYPYTFGQGTKVEIKGGGGSGGGGSGGGGSEVQLVESGGGVVRPGGSLRLSCAASGFTFDDYGMSWVRQAPGKGLEWVSGINWNGGSTGYADSVKGRFTISRDNAKNSLYLQMNSLRAEDTAVYYCARGRSLLFDYWGQGTLVTVSRASTKGPSVFPLAPSSKSTSGGTAALGCLVKDYFPEPVTVSWNSGALTSGVHTFPAVLQSSGLYSLSSVVTVPSSSLGTQTYICNVNHKPSNTKVDKKVEPKSCDKTHTCPPCPAPPVAGPSVFLFPPKPKDTLMISRTPEVTCVVVDVSHEAPEVQFNWYVDGVEVHNAKTKPREEQFNSTFRVVSVLTVVHQDWLNGKEYKCKVSNKGLPAPIEKTISKTKGQPREPQVYTLPPSRDELTKNQVSLTCLVKGFYPSDIAVEWESNGQPENNYKTTPPVLDSDGSFFLYSKLTVDKSRWQQGNVFSCSVMHEALHNHYTQKSLSLSPGK
Take B4: the response was half-maximal at 5.59 nM (EC50).

B5: Y116-B1 (bispecific antibody)
light: DIQMTQSPSSLSASVGDRVTITCKASQDVGIAVAWYQQKPGKVPKLLIYWASTRHTGVPDRFSGSGSGTDFTLTISSLQPEDVATYYCQQYSSYPYTFGQGTKVEIKRTVAAPSVFIFPPSDEQLKSGTASVVCLLNNFYPREAKVQWKVDNALQSGNSQESVTEQDSKDSTYSLSSTLTLSKADYEKHKVYACEVTHQGLSSPVTKSFNRGECGAAAGGGGSGGGGSGGGGSEVQLVESGGGVVRPGGSLRLSCAASGFTFDDYGMSWVRQAPGKGLEWVSGINWNGGSTGYADSVKGRFTISRDNAKNSLYLQMNSLRAEDTAVYYCARGRSLLFDYWGQGTLVTVSR
heavy: EVQLVESGGGLVQPGGSLRLSCAASGFDFSRYWMSWVRQAPGKGLEWIGEINPDSSTINYAPSLKDKFIISRDNAKNSLYLQMNSLRAEDTAVYYCARPDGNYWYFDVWGQGTLVTVSSASTKGPSVFPLAPSSKSTSGGTAALGCLVKDYFPEPVTVSWNSGALTSGVHTFPAVLQSSGLYSLSSVVTVPSSSLGTQTYICNVNHKPSNTKVDKKVEPKSCGAAAGGGGSGGGGSSELTQDPAVSVALGQTVRITCQGDSLRSYYASWYQQKPGQAPVLVIYGKNNRPSGIPDRFSGSSSGNTASLTITGAQAEDEADYYCNSRDSSGNHVVFGGGTKLTVLGYPGGGGSDKTHTCPPCPAPPVAGPSVFLFPPKPKDTLMISRTPEVTCVVVDVSHEAPEVQFNWYVDGVEVHNAKTKPREEQFNSTFRVVSVLTVVHQDWLNGKEYKCKVSNKGLPAPIEKTISKTKGQPREPQVYTLPPSRDELTKNQVSLTCLVKGFYPSDIAVEWESNGQPENNYKTTPPVLDSDGSFFLYSKLTVDKSRWQQGNVFSCSVMHEALHNHYTQKSLSLSPGK
As to B5, the EC50 worked out at 0.636 nM. Against the preceding molecule, the EC50 is about 8.8-fold lower.

B6: ElotuzumAb (antibody, human IgG1, kappa, V domains shown)
VH: EVQLVESGGGLVQPGGSLRLSCAASGFDFSRYWMSWVRQAPGKGLEWIGEINPDSSTINYAPSLKDKFIISRDNAKNSLYLQMNSLRAEDTAVYYCARPDGNYWYFDVWGQGTLVTVSS
VL: DIQMTQSPSSLSASVGDRVTITCKASQDVGIAVAWYQQKPGKVPKLLIYWASTRHTGVPDRFSGSGSGTDFTLTISSLQPEDVATYYCQQYSSYPYTFGQGTKVEIKR
notes: anti-SLAMF7 monoclonal antibody, human IgG1 constant domains, kappa
For B6, the concentration giving a half-maximal response (EC50) amounted to 0.628 nM.

B7: Y316-A1 (bispecific antibody)
chain: EVQLVESGGGLVQPGGSLRLSCAASGFDFSRYWMSWVRQAPGKGLEWIGEINPDSSTINYAPSLKDKFIISRDNAKNSLYLQMNSLRAEDTAVYYCARPDGNYWYFDVWGQGTLVTVSSGGGGSGGGGSGGGGSDIQMTQSPSSLSASVGDRVTITCKASQDVGIAVAWYQQKPGKVPKLLIYWASTRHTGVPDRFSGSGSGTDFTLTISSLQPEDVATYYCQQYSSYPYTFGQGTKVEIKGGGGSASEVQLVESGGGVVRPGGSLRLSCAASGFTFDDYGMSWVRQAPGKGLEWVSGINWNGGSTGYADSVKGRFTISRDNAKNSLYLQMNSLRAEDTAVYYCARGRSLLFDYWGQGTLVTVSRGGGGSGGGGSGGGGSSELTQDPAVSVALGQTVRITCQGDSLRSYYASWYQQKPGQAPVLVIYGKNNRPSGIPDRFSGSSSGNTASLTITGAQAEDEADYYCNSRDSSGNHVVFGGGTKLTVLDKTHTCPPCPAPPVAGPSVFLFPPKPKDTLMISRTPEVTCVVVDVSHEAPEVQFNWYVDGVEVHNAKTKPREEQFNSTFRVVSVLTVVHQDWLNGKEYKCKVSNKGLPAPIEKTISKTKGQPREPQVYTLPPSRDELTKNQVSLTCLVKGFYPSDIAVEWESNGQPENNYKTTPPVLDSDGSFFLYSKLTVDKSRWQQGNVFSCSVMHEALHNHYTQKSLSLSPGK
notes: structure 3 Tandem-ScFv-Fc, A series, two identical fusion peptides; scFv Elotuzumab (anti-SLAMF7), scFv NM3E2 (anti-CD16)
Take B7: the EC50 was determined as 9.18 nM.
